Measurements reported in US6528630.
Read-outs that look alike come from different tables or passages of the source.

How the values were obtained:
[1] = target: α1B-1α2bβ1-2 human neuronal calcium channel (human) (UniProt Q02641); experiment: Bmax of 125I-ω-CgTx GVIA binding, against α1B-1β1-2
[2] = target: α1B-1α2bβ1-3 human neuronal calcium channel (human) (UniProt Q02641); experiment: Bmax of 125I-ω-CgTx GVIA binding, against α1B-1β1-3
[3] = target: α1B-2α2bβ1-2 human neuronal calcium channel (human) (UniProt Q02641); experiment: Bmax of 125I-ω-CgTx GVIA binding, against α1B-2β1-2
Chain of α1B-2α2bβ1-2 human neuronal calcium channel (human) (Q02641 whole entry): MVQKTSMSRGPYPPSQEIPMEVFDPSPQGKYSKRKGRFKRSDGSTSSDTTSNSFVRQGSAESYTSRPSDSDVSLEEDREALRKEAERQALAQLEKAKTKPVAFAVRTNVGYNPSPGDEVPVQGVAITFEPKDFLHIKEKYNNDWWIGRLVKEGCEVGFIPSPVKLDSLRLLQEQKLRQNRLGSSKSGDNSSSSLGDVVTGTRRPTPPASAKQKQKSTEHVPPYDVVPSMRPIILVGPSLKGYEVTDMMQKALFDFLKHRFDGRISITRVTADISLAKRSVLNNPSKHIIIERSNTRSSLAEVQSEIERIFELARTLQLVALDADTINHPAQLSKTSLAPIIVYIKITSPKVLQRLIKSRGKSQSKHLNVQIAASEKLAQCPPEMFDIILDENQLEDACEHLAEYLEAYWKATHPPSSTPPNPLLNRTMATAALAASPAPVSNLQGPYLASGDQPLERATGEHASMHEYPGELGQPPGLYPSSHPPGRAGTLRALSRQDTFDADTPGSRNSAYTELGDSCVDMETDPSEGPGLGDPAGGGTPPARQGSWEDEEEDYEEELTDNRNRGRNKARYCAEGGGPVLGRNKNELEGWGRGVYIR

[4] = target: α1B-2α2bβ1-3 human neuronal calcium channel (human) (UniProt Q02641); experiment: Bmax of 125I-ω-CgTx GVIA binding, against α1B-2β1-3
Chain of α1B-2α2bβ1-3 human neuronal calcium channel (human) (Q02641 whole entry): as above

[5] = target: α1B-1β1-2 human neuronal calcium channel subunit combination (human) (UniProt Q02641); experiment: Bmax of 125I-ω-CgTx GVIA binding, against α1B-1 alone
Chain of α1B-1β1-2 human neuronal calcium channel subunit combination (human) (Q02641 whole entry): as above

[6] = target: α1B-1β1-3 human neuronal calcium channel subunit combination (human) (UniProt Q02641); experiment: as above
Chain of α1B-1β1-3 human neuronal calcium channel subunit combination (human) (Q02641 whole entry): as above

[7] = target: α1B-1α2bβ1-3 human neuronal calcium channel (human) (UniProt Q02641); experiment: Bmax of 125I-ω-CgTx GVIA binding, against α1B-1α2bβ1-2
[8] = target: α1B-1α2bβ1-2 human neuronal calcium channel (human) (UniProt Q02641); experiment: Bmax of 125I-ω-CgTx GVIA binding, against α1B-2α2bβ1-2
[9] = target: α1B-2α2bβ1-3 human neuronal calcium channel (human) (UniProt Q02641); experiment: as above
[10] = target: α1B-1α2bβ1-3 human neuronal calcium channel (human) (UniProt Q02641); experiment: Bmax of 125I-ω-CgTx GVIA binding, against α1B-2α2bβ1-3
[11] = target: α1B-1α2bβ1-2 human neuronal calcium channel (human) (UniProt Q02641); experiment: saturation binding of 125I-ω-CgTx GVIA to transfected HEK293 cells
[12] = target: α1B-1α2bβ1-3 human neuronal calcium channel (human) (UniProt Q02641); experiment: as above
[13] = target: α1B-1β1-2 human neuronal calcium channel subunit combination (human) (UniProt Q02641); experiment: as above
[14] = target: α1B-1β1-3 human neuronal calcium channel subunit combination (human) (UniProt Q02641); experiment: as above
[15] = target: α1B-2α2bβ1-2 human neuronal calcium channel (human) (UniProt Q02641); experiment: as above
[16] = target: α1B-2α2bβ1-3 human neuronal calcium channel (human) (UniProt Q02641); experiment: as above
[17] = target: α1B-2β1-2 human neuronal calcium channel subunit combination (human) (UniProt Q02641); experiment: as above
Chain of α1B-2β1-2 human neuronal calcium channel subunit combination (human) (Q02641 whole entry): as above

[18] = target: α1B-2β1-3 human neuronal calcium channel subunit combination (human) (UniProt Q02641); experiment: as above
Chain of α1B-2β1-3 human neuronal calcium channel subunit combination (human) (Q02641 whole entry): as above

[19] = target: α1B-1α2bβ1-2 human neuronal calcium channel (human) (UniProt Q02641)

Chain of α1B-1α2bβ1-3 human neuronal calcium channel (human) (Q02641 whole entry): as above
Chain of α1B-1α2bβ1-2 human neuronal calcium channel (human) (Q02641 whole entry): as above
Chain of 125I-ω-CgTx GVIA (P01522 46-72 limits assumed): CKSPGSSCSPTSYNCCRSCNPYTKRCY

## 125I-ω-CgTx GVIA (from UniProt P01522 46-72) (peptide)
[1]
  fold change of surface receptor density: 8 fold
[2]
  fold change of surface receptor density: 10 fold
[3]
  fold change of surface receptor density: 9 fold
[4]
  fold change of surface receptor density: 13 fold
[5]
  fold change of surface binding: 8 fold
[6]
  fold change of surface binding: 10 fold
[7]
  fold change of binding capacity: 2 fold
[8]
  fold change of binding sites per cell: 2.5 fold
[9]
  fold change of binding capacity: 2 fold
[10]
  fold change of binding sites per cell: 2.5 fold
[11]
  Bmax: 45300 sites/cell
  Kd: 0.0549 nM
[12]
  Bmax: 91000 sites/cell
  Kd: 0.0532 nM
[13]
  Bmax: 5760 sites/cell
  Kd: 0.0179 nM
[14]
  Bmax: 8730 sites/cell
  Kd: 0.0179 nM
[15]
  Bmax: 19400 sites/cell
  Kd: 0.053 nM
[16]
  Bmax: 37700 sites/cell
  Kd: 0.0443 nM
[17]
  Bmax: 2130 sites/cell
  Kd: 0.0164 nM
[18]
  Bmax: 2940 sites/cell
  Kd: 0.0222 nM

## ω-CgTx GVIA (from UniProt P01522 46-72) (peptide)
[19]
  Kd: 0.0546 nM
  binding capacity (Bmax) (sites per cell): 28700
